Data published in patent US20030061635A1, “Pollen-specific novel calmodulin-binding protein, NPG1 (No Pollen Germination1), promoter, coding sequences and methods for using the same” (priority 2001, published 2003).

Assays:
[1] = tested on: CaM isoforms 2, 4, and 6 from Arabidopsis; experiment: Slot blot: synthetic peptides probed with 35S-labeled AtCaM isoforms; type: binding, Arabidopsis thaliana
Description: Soluble and insoluble proteins from the induced and un-induced cultures were separated on 12% SDS-polyacrylamide gels and blotted as described above. To detect the binding of the expressed proteins to ^35S-labeled AtCaM, duplicate blots were blocked for 15 min in TBS (50 mM Tris-HCl, pH 7.5, 150 mM NaCl) containing 5 mM of either CaCl2 or EGTA and 1% nonfat dry milk. The blots were then incubated for 12 h in a mixture of ^35S-labeled AtCaM isoforms at […] in the same buffers as above. The filters were then washed with the corresponding buffer and dried before exposing to X-ray film. Binding to biotinylated CaM was detected by blocking the blots in 3% gelatin in TBS/Ca/Mg or TBS/EGTA/Mg (50 mM Tris-HCl, pH 7.5, 50 mM MgCl2, 150 mM NaCl, and 5 mM of either CaCl2 or EGTA) at 30° C. […] The blots were then incubated in Vectastain ABC.HRP in TBS/Ca/Mg or TBS/EGTA/Mg for 30 min, washed 3 times, 10 min each, with the above buffer and the CaM-binding proteins were detected colorimetrically in a substrate solution (0.8 mg/ml diaminobenzidine, 0.4 mg/ml NiCl2, and 0.009% H2O2 in 100 mM Tris-HCl, pH 7.5). […]
The interaction between synthetic peptides and AtCaM isoforms was analyzed by applying synthetic peptides to a nitrocellulose membrane in a slot blot apparatus, and incubating the membrane individually with ^35S-labeled AtCaM isoforms using the method described above.

35S-labeled AtCaM = experiment: Blot overlay of bacterially expressed maize NPG1 fusion proteins with 35S-CaM; type: binding, Arabidopsis thaliana; details: in the presence of Ca2+
Description: The 1.2-kb cDNA insert (named P3) containing the coding region for 242 amino acids in the carboxyl-terminal region was cloned in-frame into a pET28b expression vector. For mapping the CaM-binding domain, several truncated constructs were prepared in a pET vector. The P3 cDNA in pET28 was digested with either NcoI or BamHI to release a 168- or 717-bp fragment corresponding to the 5′ end of the cDNA. The NcoI and BamHI fragments were cloned into pET28b vector digested with the respective enzymes to generate P3/NcoI and P3/BamHI clones. The P3 clones lacking either NcoI or BamHI fragments were religated to generate PΔNcoI and PΔBamHI expression clones. […]
Soluble and insoluble proteins from the induced and un-induced cultures were separated on 12% SDS-polyacrylamide gels and blotted as described above. […] Binding to biotinylated CaM was detected by blocking the blots in 3% gelatin in TBS/Ca/Mg or TBS/EGTA/Mg (50 mM Tris-HCl, pH 7.5, 50 mM MgCl2, 150 mM NaCl, and 5 mM of either CaCl2 or EGTA) at 30° C. […] The blots were then incubated in Vectastain ABC.HRP in TBS/Ca/Mg or TBS/EGTA/Mg for 30 min, washed 3 times, 10 min each, with the above buffer and the CaM-binding proteins were detected colorimetrically in a substrate solution (0.8 mg/ml diaminobenzidine, 0.4 mg/ml NiCl2, and 0.009% H2O2 in 100 mM Tris-HCl, pH 7.5).

CaM2 = target: T1, CaM2 (Arabidopsis thaliana, UniProt P0DH97); experiment: Tryptophan fluorescence spectroscopy of peptide with CaM; type: binding; details: equimolar peptide and CaM2, excitation 290 nm; free peptide about 350 nm
T1 construct: made in house; host or cells: E. coli BL21(DE3)
Description: (§1) The tryptophan fluorescence spectra of free and CaM-bound synthetic peptide were recorded with a Hitachi-F-3010/4010 spectrofluorimeter as described in Reddy et al. (1996) supra. NPG1 peptide and AtCaMs (166 pmol each) were mixed in a […] reaction volume. The tryptophan residue in free and CaM-bound synthetic NPG1 peptide was excited at 290 nm and the emission wavelength values were recorded from 300 to 400 nm with a bandwidth of 5 nm in a 5-mm quartz cell at 25° C. Samples were incubated for 1 h at 25° C. prior to spectroscopic measurements. Corrections were made for the protein and solvent blanks.

bovine CaM [2] = target: T2, bovine CaM (Bos taurus, UniProt P62157); experiment: as above; type: binding; details: equimolar peptide and bovine CaM, excitation 290 nm; free peptide about 350 nm
T2 construct: purchased Calbiochem-Novabiochem (San Diego, Calif.)
Description: as §1

CaM4 = target: T3, CaM4 (Arabidopsis thaliana, UniProt P0DH96); experiment: as above; type: binding
T3 construct: made in house; host or cells: E. coli BL21(DE3)
Description: as §1

CaM6 = target: T4, CaM6 (Arabidopsis thaliana, UniProt Q03509); experiment: as above; type: binding; details: equimolar peptide and CaM6, excitation 290 nm; free peptide about 350 nm
T4 construct: made in house; host or cells: E. coli BL21(DE3)
Description: as §1

bovine CaM [3] = target: T2, bovine CaM; experiment: Binding of synthetic peptide to bovine CaM; details: 'at concentrations as low as'
[4] = tested on: AtCaM isoforms (CaM2, CaM4, CaM6); experiment: Calmodulin electrophoretic mobility shift assay in 4 M urea gels; type: binding, Arabidopsis thaliana
Description: (§2) The interaction of CaM with synthetic peptide was also analyzed using electrophoretic mobility shift of CaM in the presence of a synthetic peptide. Each of the AtCaM isoforms and bovine CaM (166 pmol) were incubated with increasing concentrations of maize NPG1-synthetic peptide (166, 332, and 664 pmol) in the presence of 4 M urea, in a buffer containing 100 mM Tris-HCl, pH 7.5, and 1 mM CaCl2 or 5 mM EGTA at room temperature for 1 h in a total volume of […]. Then, […] of sample buffer (0.375 M Tris-HCl, pH 6.8, 30% glycerol, and 0.023% bromphenol blue) was added to the samples and the mixture was electrophoresed in 12% polyacrylamide gels containing 4 M urea or 7.5% glycerol, 0.375 M Tris-HCl, pH 8.8, and either 1 mM CaCl2 or 5 mM EGTA. The gels were run at a constant voltage of 25 V per gel in an electrode buffer (25 mM Tris-HCl, pH 8.3, 192 mM glycine, and either 1 mM CaCl2 or 5 mM EGTA). The gels were stained with 0.25% Coomassie Blue R-250 in 7.5% acetic acid and 50% methanol for 1 h and then destained with 30% methanol and 7% acetic acid.

bovine CaM [5] = target: T2, bovine CaM; experiment: as above; type: binding
Description: as §2

CaM = CaM binding of truncated Arabidopsis NPG1
From the text: To map the CaM-binding domain, a truncated version (aa 448-496 of SEQ ID NO:10) of Arabidopsis NPG1 which contains a putative calmodulin-binding domain was expressed in E. coli and tested for its ability to bind CaM. […] The CBD was further mapped to an eighteen amino acid stretch (aa 464-481) by using synthetic peptides in a gel-shift assay.

[6] = molar ratio 1:1 (peptide:CaM), CaCl2, 4 M urea
[7] = molar ratio 2:1 and 4:1 (peptide:CaM), CaCl2, 4 M urea

Substance: AKLDQGSLLRVKA-KLKVAQSSPM (AKLDQGSLLRVKAKLKVAQSSPM) [MP-2]
- binding to the labeled CaM isoforms ([1]; 35S-labeled AtCaM isoforms, slot blot): Neither MP2 nor BSA showed any binding

Substance: P3/NcoI: truncated P3 fusion protein (16 kDa) from the 168-bp NcoI fragment at the 5′ end of the cDNA (GGSVSKGWRLLALILSAQQRFSEAEVATDAALDETAKLDQGSLLRVKAKLKVAQSSP; left off: small tags and cut ends)
- binding to 35S-CaM (35S-labeled AtCaM): produced CaM-binding peptide

Substance: VSKGWRLLALILSAQQRF [MP-1]
- wavelength of peak emission (CaM2): about 315 nm
- wavelength of peak emission (bovine CaM [2]): about 315 nm
- wavelength of peak emission (CaM4; equimolar peptide and CaM4, excitation 290 nm, free peptide about 350 nm): about 315 nm
- fluorescence intensity (CaM4; in the presence of CaM4, free peptide about 0.1): about 4.5
- wavelength of peak emission (CaM6): about 315 nm
- lowest amount of synthetic peptide that bound CaM (bovine CaM [3]): 0.5 µg
- lowest amount of synthetic peptide that bound CaM ([1]; CaM isoforms 2, 4, and 6, 'at concentrations as low as'): 0.5 µg
- change in CaM mobility ([4]; in the presence of EGTA): No change in CaM mobility
- CaM showing a mobility shift [4, 6]: about 50%
- CaM migrating as peptide complex [4, 7]: the entire CaM migrated as a complex
- change in CaM mobility (bovine CaM [5]; in the presence of EGTA): No change in CaM mobility
- CaM showing a mobility shift (bovine CaM [5]; [6]): about 50%
- CaM migrating as peptide complex (bovine CaM [5]; [7]): the entire CaM migrated as a complex

Substance: truncated version (aa 448-496 of SEQ ID NO:10): truncated Arabidopsis NPG1 containing a putative calmodulin-binding domain, expressed in E. coli (AASRYAKEFIDATGGSVLKGWRFLALVLSAQQRFSEAEVVTDAALDETA; listed as Arabidopsis thaliana)
- ability to bind CaM (CaM): bound CaM in a manner similar to the full-length protein
